Source: patent US20200054723A1 (ALLAKOS, published 2020)
Several values for one entry are separate records, joined by “and”; a condition that tells them apart may be missing. Equal entries are not always repeated.

B1: chimeric 2E2 antibody (antibody, human IgG1, kappa)
heavy: not shown
light: QIILTQSPAIMSASPGEKVSITCSATSSVSYMHWFQQKPGTSPKLWIYSTSNLASGVPVRFSGSGSGTSYSLTISRMEAEDAATYYCQQRSSYPFTFGSGTKLEIKRTVAAPSVFIFPPSDEQLKSGTASVVCLLNNFYPREAKVQWKVDNALQSGNSQESVTEQDSKDSTYSLSSTLTLSKADYEKHKVYACEVTHQGLSSPVTKSFNRGEC
notes: human IgG1/kappa; also called ch2E2; ch2E2 purified
B2: mouse 2E2 Fab fragment (Fab)
VH: QVQLKESGPGLVAPSQSLSITCTVSGFSLTIYGAHWVRQPPGKGLEWLGVIWAGGSTNYNSALMSRLSISKDNSKSQVFLKINSLQTDDTALYYCARDGSSPYYYSMEYWGQGTSVTVSS
light: QIILTQSPAIMSASPGEKVSITCSATSSVSYMHWFQQKPGTSPKLWIYSTSNLASGVPVRFSGSGSGTSYSLTISRMEAEDAATYYCQQRSSYPFTFGSGTKLEIKADAAPTVSIFPPSSEQLTSGGASVVCFLNNFYPKDINVKWKIDGSERQNGVLNSWTDQDSKDSTYSMSSTLTLTKDEYERHNSYTCEATHKTSTSPIVKSFNRNEC
notes: Fab made by papain digestion of the murine IgG1; also called murine 2E2 Fab
B3: chimeric 2E2 Fab fragment (Fab)
VH: QVQLKESGPGLVAPSQSLSITCTVSGFSLTIYGAHWVRQPPGKGLEWLGVIWAGGSTNYNSALMSRLSISKDNSKSQVFLKINSLQTDDTALYYCARDGSSPYYYSMEYWGQGTSVTVSS
light: QIILTQSPAIMSASPGEKVSITCSATSSVSYMHWFQQKPGTSPKLWIYSTSNLASGVPVRFSGSGSGTSYSLTISRMEAEDAATYYCQQRSSYPFTFGSGTKLEIKRTVAAPSVFIFPPSDEQLKSGTASVVCLLNNFYPREAKVQWKVDNALQSGNSQESVTEQDSKDSTYSLSSTLTLSKADYEKHKVYACEVTHQGLSSPVTKSFNRGEC
notes: Fab made by papain digestion of the human IgG1 chimeric antibody
B4: HEKA Fab fragment (Fab)
VH: EVQLVESGGGLVQPGGSLRLSCAASGFSLTIYGAHWVRQAPGKGLEWVGVIWAGGSTNYNSALMSRFTISKDNSKNTVYLQMNSLRAEDTAVYYCARDGSSPYYYSMEYWGQGTTVTVSS
light: EIVLTQSPATLSLSPGERATLSCSATSSVSYMHWFQQKPGQAPRLLIYSTSNLASGIPARFSGSGSGTDFTLTISSLEPEDFAVYYCQQRSSYPFTFGPGTKLDIKRTVAAPSVFIFPPSDEQLKSGTASVVCLLNNFYPREAKVQWKVDNALQSGNSQESVTEQDSKDSTYSLSSTLTLSKADYEKHKVYACEVTHQGLSSPVTKSFNRGEC
notes: Fab made by papain digestion
B5: RHE Y-VKE (antibody, human IgG1, V domains shown)
VH: EVQLVESGGGLVQPGGSLRLSCAASGFSLTIYGAHWVRQAPGKGLEWVGVIWAGGSTNYNSALMSRFTISKDNSKNTVYLQMNSLRAEDTAVYYCARDGSSPYYYSMEVWGQGTTVTVSS
VL: EIVLTQSPATLSLSPGERATLSCSATSSVSYMHWFQQKPGQAPRLLIYSTSNLASGVPARFSGSGSGTDFTLTISSLEPEDFAVYYCQQRSSYPFTFGPGTKLDIK
notes: human IgG1/kappa
B6: RHE Y-VKF (antibody, human IgG1, V domains shown)
VH: EVQLVESGGGLVQPGGSLRLSCAASGFSLTIYGAHWVRQAPGKGLEWVGVIWAGGSTNYNSALMSRFTISKDNSKNTVYLQMNSLRAEDTAVYYCARDGSSPYYYSMEVWGQGTTVTVSS
VL: EIVLTQSPATLSLSPGERATLSCSATSSVSYMHWFQQKPGQAPRLLIYSTSNLASGIPARFSGSGSGTDYTLTISSLEPEDFAVYYCQQRSSYPFTFGPGTKLDIK
notes: human IgG1/kappa
B7: RHE Y-VKFmut (antibody, human IgG1, V domains shown)
VH: EVQLVESGGGLVQPGGSLRLSCAASGFSLTIYGAHWVRQAPGKGLEWVGVIWAGGSTNYNSALMSRFTISKDNSKNTVYLQMNSLRAEDTAVYYCARDGSSPYYYSMEVWGQGTTVTVSS
VL: EIVLTQSPATLSLSPGERATLSCSATSSVSYMHWFQQKPGQAPRLLIYSTSNLASGIPARFSGSGSGTDYTLTISSLEPEDFAVYYCQQRSSYPYTFGPGTKLDIK
notes: human IgG1/kappa
B8: RHE Y-VKG (antibody, human IgG1, V domains shown)
VH: EVQLVESGGGLVQPGGSLRLSCAASGFSLTIYGAHWVRQAPGKGLEWVGVIWAGGSTNYNSALMSRFTISKDNSKNTVYLQMNSLRAEDTAVYYCARDGSSPYYYSMEVWGQGTTVTVSS
VL: EIVLTQSPATLSLSPGERATLSCSATSSVSYMHWYQQKPGQAPRLLIYSTSNLASGIPARFSGSGSGTDFTLTISSLEPEDFAVYYCQQRSSYPFTFGPGTKLDIK
notes: human IgG1/kappa
B9: HA2KB (antibody, human IgG1, V domains shown)
VH: QVQLQESGPGLVKPSETLSLTCTVSGGSISIYGAHWIRQPPGKGLEWIGVIWAGGSTNYNSALMSRVTISVDTSKNQFSLKLSSVTAADTAVYYCARDGSSPYYYSMEYWGQGTLVTVSS
VL: EIILTQSPATLSLSPGERATLSCSATSSVSYMHWFQQKPGQAPRLWIYSTSNLASGVPARFSGSGSGTDYTLTISSLEPEDFAVYYCQQRSSYPFTFGPGTKLDIK
notes: human IgG1/kappa
B10: HB2KA (antibody, human IgG1, V domains shown)
VH: QVQLQESGPGLVKPSETLSLTCTVSGFSLTIYGAHWVRQPPGKGLEWLGVIWAGGSTNYNSALMSRLSISKDNSKNQVSLKLSSVTAADTAVYYCARDGSSPYYYSMEYWGQGTLVTVSS
VL: EIVLTQSPATLSLSPGERATLSCSATSSVSYMHWFQQKPGQAPRLLIYSTSNLASGIPARFSGSGSGTDFTLTISSLEPEDFAVYYCQQRSSYPFTFGPGTKLDIK
notes: human IgG1/kappa
B11: HA2KFmut (antibody, human IgG1, V domains shown)
VH: QVQLQESGPGLVKPSETLSLTCTVSGGSISIYGAHWIRQPPGKGLEWIGVIWAGGSTNYNSALMSRVTISVDTSKNQFSLKLSSVTAADTAVYYCARDGSSPYYYSMEYWGQGTLVTVSS
VL: EIVLTQSPATLSLSPGERATLSCSATSSVSYMHWFQQKPGQAPRLLIYSTSNLASGIPARFSGSGSGTDYTLTISSLEPEDFAVYYCQQRSSYPYTFGPGTKLDIK
notes: human IgG1/kappa
B12: HB2KC (antibody, human IgG1, V domains shown)
VH: QVQLQESGPGLVKPSETLSLTCTVSGFSLTIYGAHWVRQPPGKGLEWLGVIWAGGSTNYNSALMSRLSISKDNSKNQVSLKLSSVTAADTAVYYCARDGSSPYYYSMEYWGQGTLVTVSS
VL: EIILTQSPATLSLSPGERATLSCSATSSVSYMHWFQQKPGQAPRLLIYSTSNLASGIPARFSGSGSGTDFTLTISSLEPEDFAVYYCQQRSSYPFTFGPGTKLDIK
notes: human IgG1/kappa
B13: HB2KG (antibody, V domains shown)
VH: QVQLQESGPGLVKPSETLSLTCTVSGFSLTIYGAHWVRQPPGKGLEWLGVIWAGGSTNYNSALMSRLSISKDNSKNQVSLKLSSVTAADTAVYYCARDGSSPYYYSMEYWGQGTLVTVSS
VL: EIVLTQSPATLSLSPGERATLSCSATSSVSYMHWYQQKPGQAPRLLIYSTSNLASGIPARFSGSGSGTDFTLTISSLEPEDFAVYYCQQRSSYPFTFGPGTKLDIK
notes: human IgG1/kappa
B14: cVHKB (antibody, human IgG1, V domains shown)
VH: QVQLKESGPGLVAPSQSLSITCTVSGFSLTIYGAHWVRQPPGKGLEWLGVIWAGGSTNYNSALMSRLSISKDNSKSQVFLKINSLQTDDTALYYCARDGSSPYYYSMEYWGQGTSVTVSS
VL: EIILTQSPATLSLSPGERATLSCSATSSVSYMHWFQQKPGQAPRLWIYSTSNLASGVPARFSGSGSGTDYTLTISSLEPEDFAVYYCQQRSSYPFTFGPGTKLDIK
notes: human IgG1/kappa
B15: HBcVK (antibody, human IgG1, V domains shown)
VH: EVQLVESGGGLVQPGGSLRLSCAVSGFSLTIYGAHWVRQAPGKGLEWLGVIWAGGSTNYNSALMSRLSISKDNSKNTVYLQMNSLRAEDTAVYYCARDGSSPYYYSMEYWGQGTTVTVSS
VL: QIILTQSPAIMSASPGEKVSITCSATSSVSYMHWFQQKPGTSPKLWIYSTSNLASGVPVRFSGSGSGTSYSLTISRMEAEDAATYYCQQRSSYPFTFGSGTKLEIK
notes: human IgG1/kappa
B16: HAcVK (antibody, human IgG1, V domains shown)
VH: EVQLVESGGGLVQPGGSLRLSCAASGFSLTIYGAHWVRQAPGKGLEWVSVIWAGGSTNYNSALMSRFTISKDNSKNTVYLQMNSLRAEDTAVYYCARDGSSPYYYSMEYWGQGTTVTVSS
VL: QIILTQSPAIMSASPGEKVSITCSATSSVSYMHWFQQKPGTSPKLWIYSTSNLASGVPVRFSGSGSGTSYSLTISRMEAEDAATYYCQQRSSYPFTFGSGTKLEIK
notes: human IgG1/kappa

Each binder was assayed against T1, Dimeric Siglec-8 (human Siglec-8 ECD protein) (human, UniProt Q9NYZ4 17-363) (assay: SPR (Biacore), antibody captured, dimeric Siglec-8 as analyte, 1:1 global fit (avidity)).
T1 construct: extracellular domain; Analyte of the Biacore avidity assay
T1 sequence (Q9NYZ4 17-363): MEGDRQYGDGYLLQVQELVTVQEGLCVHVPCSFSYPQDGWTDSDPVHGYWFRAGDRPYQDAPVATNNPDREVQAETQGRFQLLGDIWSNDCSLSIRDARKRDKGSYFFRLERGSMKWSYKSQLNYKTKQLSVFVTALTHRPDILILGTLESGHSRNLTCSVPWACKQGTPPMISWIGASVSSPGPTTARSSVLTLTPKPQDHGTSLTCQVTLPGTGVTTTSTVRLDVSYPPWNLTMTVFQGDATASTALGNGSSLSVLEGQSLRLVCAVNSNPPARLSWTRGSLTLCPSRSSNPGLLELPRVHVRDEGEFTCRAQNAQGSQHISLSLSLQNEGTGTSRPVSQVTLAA
Method: Antibody avidity determination was carried out by SPR analysis using a Biacore T200. Binding of human Siglec-8 ECD protein to mouse, chimeric and humanized anti-Siglec-8 antibodies was measured on a […]. The capture antibodies (goat-anti-human-Fc and goat-anti-mouse-Fc from Jackson Immunoresearch) were immobilized on a CM5 chip according to manufacturer's protocol (Biacore, GE). Flow-cell 1, 2 and 3 were immobilized with anti-human, and flow cell 4 with anti-mouse antibodies. The assay was conducted at 25° C., at a flow rate of […]. Assay buffer was 20 mM Tris-HCl pH 8.3, 150 mM Sodium Chloride, 0.05% Polysorbate 20, 10% glycerol, 0.1% BSA, made in ultrapure water. Dimeric Siglec-8 (impurities of monomeric and oligomeric Siglec-8 were removed by size-exclusion chromatography) was diluted in assay buffer from 15 nM to […] with 2× dilutions. Antibodies were captured to a change of approximately 120 RU. Six-minute high performance injections were conducted, followed by 120-minute dissociations. Flow cells were regenerated with 50 mM glycine pH 1.5. Results were double blanked with an empty reference cell and multiple assay buffer injections, and analyzed with 1:1 global fit parameters.

Binder	Kd	koff	kon
B1	0.016 nM	1.32e-05 s⁻¹	851000 M⁻¹ s⁻¹

The binders below were run against T2, Siglec-8-Fc tagged protein (human Siglec-8 extracellular domain fused to an immunoglobulin Fc region) (human) (assay: BLI (Octet Red 384), Siglec-8-Fc on anti-human capture sensors, Fab in solution).
T2 construct: also called Siglec-8 Fc fusion protein
T2 sequence (chain, as listed by the source limits assumed): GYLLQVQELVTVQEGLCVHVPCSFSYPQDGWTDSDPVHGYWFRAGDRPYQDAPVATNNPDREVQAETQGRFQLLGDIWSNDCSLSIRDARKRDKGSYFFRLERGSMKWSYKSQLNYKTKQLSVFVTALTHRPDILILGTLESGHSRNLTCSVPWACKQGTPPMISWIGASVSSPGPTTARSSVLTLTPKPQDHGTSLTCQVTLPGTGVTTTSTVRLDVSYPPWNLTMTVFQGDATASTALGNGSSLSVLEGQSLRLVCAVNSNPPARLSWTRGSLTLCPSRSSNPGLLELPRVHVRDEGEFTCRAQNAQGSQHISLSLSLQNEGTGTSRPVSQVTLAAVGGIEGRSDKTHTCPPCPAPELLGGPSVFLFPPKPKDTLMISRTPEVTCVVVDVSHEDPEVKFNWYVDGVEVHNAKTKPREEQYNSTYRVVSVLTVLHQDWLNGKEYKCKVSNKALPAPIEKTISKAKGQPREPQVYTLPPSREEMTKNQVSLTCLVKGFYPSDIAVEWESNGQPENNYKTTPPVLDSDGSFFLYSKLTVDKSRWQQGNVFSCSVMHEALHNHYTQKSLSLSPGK
Method: Antibody affinity determination was also carried out by bio-layer interferometry (ForteBio). Binding of mouse, chimeric and humanized anti-Siglec-8 antibody Fab fragments to human Siglec-8 protein was measured on a ForteBio Octet Red 384. The assay was conducted at 25° C., at an RPM of 1000 in assay buffer. […] Fab fragments (antibodies were digested with Thermo-Pierce immobilized papain per manufacturer's specifications) were diluted in assay buffer from 50 nM to 1.56 nM with 2× dilutions. The Siglec-8-Fc tagged protein was immobilized on Anti-Human-Capture sensors at 100 nM in assay buffer for 3 min to a change in nm of approximately 1.2. Two-minute associations were conducted, followed by 10-minute dissociations. Results were blanked with an empty reference AHC sensor, and analyzed in ForteBio analysis software with 1:1 global fit parameters.

Binder	Kd	koff	kon
B2	0.536 nM	0.000612 s⁻¹	1.14e+06 M⁻¹ s⁻¹
B3	0.585 nM	0.000556 s⁻¹	951000 M⁻¹ s⁻¹
B4	0.464 nM	0.000482 s⁻¹	1.04e+06 M⁻¹ s⁻¹

The binders below were run against T3, recombinant human Siglec-8 extracellular domain (ECD) (human, UniProt Q9NYZ4 17-363) (assay: ELISA, coated Siglec-8 ECD).
T3 construct: extracellular domain; also called Siglec-8 ECD; full Siglec-8 ECD
T3 sequence (Q9NYZ4 17-363): as the sequence (Q9NYZ4 17-363) above

Binder	EC50
B5	0.07 nM
B6	0.091 nM
B7	0.398 nM
B8	8.81 nM
B1	0.062 nM and 0.044 nM and 0.043 nM
B9	124 nM
B10	0.051 nM
B11	31.6 nM
B12	0.101 nM
B13	0.227 nM
B14	0.027 nM
B15	0.066 nM
B16	0.067 nM
